B1: PU.1 motif oligo 17 (dsDNA)
DNA 1: ACGTCACTTCCTCCCTACGT
DNA 2: ACGTAGGGAGGAAGTGACGT
B2: PU.1 motif oligo 37 (dsDNA)
DNA 1: ACGTCACTTCCTGCTAACGT
DNA 2: ACGTTAGCAGGAAGTGACGT
B3: PU.1 motif oligo 38 (dsDNA)
DNA 1: ACGTCGCTTCCCCTTCACGT
DNA 2: ACGTGAAGGGGAAGCGACGT
B4: PU.1 motif oligo 43 (dsDNA)
DNA 1: ACGTCACTTCCTCTGGACGT
DNA 2: ACGTCCAGAGGAAGTGACGT
B5: PU.1 motif oligo 28 (dsDNA)
DNA 1: ACGTTACTTCCTTTTAACGT
DNA 2: ACGTTAAAAGGAAGTAACGT
B6: PU.1 motif oligo 23 (dsDNA)
DNA 1: ACGTCACTTCCCCAAAACGT
DNA 2: ACGTTTTGGGGAAGTGACGT
B7: PU.1 motif oligo 14 (dsDNA)
DNA 1: ACGTCACTTCCTCTGTACGT
DNA 2: ACGTACAGAGGAAGTGACGT
B8: PU.1 motif oligo 19 (dsDNA)
DNA 1: ACGTCAGTTCCTCTTCACGT
DNA 2: ACGTGAAGAGGAACTGACGT
B9: PU.1 motif oligo 45 (dsDNA)
DNA 1: ACGTCATTTCCTCCTTACGT
DNA 2: ACGTAAGGAGGAAATGACGT
B10: PU.1 motif oligo 34 (dsDNA)
DNA 1: ACGTCACTTCCTCCCCACGT
DNA 2: ACGTGGGGAGGAAGTGACGT
B11: PU.1 motif oligo 1 (dsDNA)
DNA 1: ACGTCACTTCCTCTTTACGT
DNA 2: ACGTAAAGAGGAAGTGACGT
B12: PU.1 motif oligo 35 (dsDNA)
DNA 1: ACGTTGCTTCCTCTTTACGT
DNA 2: ACGTAAAGAGGAAGCAACGT
B13: PU.1 motif oligo 52 (dsDNA)
DNA 1: ACGTGCCTTCCTCTTTACGT
DNA 2: ACGTAAAGAGGAAGGCACGT
B14: PU.1 motif oligo 32 (dsDNA)
DNA 1: ACGTAACTTCCTCCTAACGT
DNA 2: ACGTTAGGAGGAAGTTACGT
B15: PU.1 motif oligo 7 (dsDNA)
DNA 1: ACGTCAGTTCCTCTTTACGT
DNA 2: ACGTAAAGAGGAACTGACGT
B16: PU.1 motif oligo 11 (dsDNA)
DNA 1: ACGTCACTTCCTCAAAACGT
DNA 2: ACGTTTTGAGGAAGTGACGT
B17: PU.1 motif oligo 25 (dsDNA)
DNA 1: ACGTCACTTCCGCTTCACGT
DNA 2: ACGTGAAGCGGAAGTGACGT
B18: PU.1 motif oligo 20 (dsDNA)
DNA 1: ACGTAACTTCCCCATTACGT
DNA 2: ACGTAATGGGGAAGTTACGT
B19: PU.1 motif oligo 12 (dsDNA)
DNA 1: ACGTCACTTCCTTTCTACGT
DNA 2: ACGTAGAAAGGAAGTGACGT
B20: PU.1 motif oligo 58 (dsDNA)
DNA 1: ACGTCACTTCCCCAGGACGT
DNA 2: ACGTCCTGGGGAAGTGACGT
B21: PU.1 motif oligo 53 (dsDNA)
DNA 1: ACGTCACTTCCATTCTACGT
DNA 2: ACGTAGAATGGAAGTGACGT
B22: PU.1 motif oligo 30 (dsDNA)
DNA 1: ACGTCAGTTCCTGTTTACGT
DNA 2: ACGTAAACAGGAACTGACGT
B23: PU.1 motif oligo 49 (dsDNA)
DNA 1: ACGTCAGTTCCTCCTGACGT
DNA 2: ACGTCAGGAGGAACTGACGT
B24: PU.1 motif oligo 5 (dsDNA)
DNA 1: ACGTCACTTCCTCTCTACGT
DNA 2: ACGTAGAGAGGAAGTGACGT
B25: PU.1 motif oligo 48 (dsDNA)
DNA 1: ACGTCACTTCTGCTTTACGT
DNA 2: ACGTAAAGCAGAAGTGACGT
B26: PU.1 motif oligo 57 (dsDNA)
DNA 1: ACGTGAGTTCCTTTAAACGT
DNA 2: ACGTTTAAAGGAACTCACGT
B27: PU.1 motif oligo 29 (dsDNA)
DNA 1: ACGTGACTTCCTGTTTACGT
DNA 2: ACGTAAACAGGAAGTCACGT
B28: PU.1 motif oligo 16 (dsDNA)
DNA 1: ACGTAACTTCCTCATAACGT
DNA 2: ACGTTATGAGGAAGTTACGT
B29: PU.1 motif oligo 39 (dsDNA)
DNA 1: ACGTCGCTTCCTCTCCACGT
DNA 2: ACGTGGAGAGGAAGCGACGT
B30: PU.1 motif oligo 24 (dsDNA)
DNA 1: ACGTAACTTCCTCAATACGT
DNA 2: ACGTATTGAGGAAGTTACGT
B31: PU.1 motif oligo 60 (dsDNA)
DNA 1: ACGTCGCTTCCTTCCTACGT
DNA 2: ACGTAGGAAGGAAGCGACGT
B32: PU.1 motif oligo 54 (dsDNA)
DNA 1: ACGTCTCTTCCTTTCTACGT
DNA 2: ACGTAGAAAGGAAGAGACGT
B33: PU.1 motif oligo 56 (dsDNA)
DNA 1: ACGTCGTTTCCTCTTTACGT
DNA 2: ACGTAAAGAGGAAACGACGT
B34: PU.1 motif oligo 18 (dsDNA)
DNA 1: ACGTCACTTCCTCAACACGT
DNA 2: ACGTGTTGAGGAAGTGACGT
B35: PU.1 motif oligo 27 (dsDNA)
DNA 1: ACGTCTCTTCCTCTTTACGT
DNA 2: ACGTAAAGAGGAAGAGACGT
B36: PU.1 motif oligo 47 (dsDNA)
DNA 1: ACGTCGCTTCCTCCTCACGT
DNA 2: ACGTGAGGAGGAAGCGACGT
B37: PU.1 motif oligo 42 (dsDNA)
DNA 1: ACGTCACTTCCGCCTCACGT
DNA 2: ACGTGAGGCGGAAGTGACGT
B38: PU.1 motif oligo 33 (dsDNA)
DNA 1: ACGTAACTTCCCCAATACGT
DNA 2: ACGTATTGGGGAAGTTACGT
B39: PU.1 motif oligo 50 (dsDNA)
DNA 1: ACGTCTCTTCCCCTCTACGT
DNA 2: ACGTAGAGGGGAAGAGACGT
B40: PU.1 motif oligo 51 (dsDNA)
DNA 1: ACGTCACTTCCTTGTCACGT
DNA 2: ACGTGACAAGGAAGTGACGT
B41: PU.1 motif oligo 41 (dsDNA)
DNA 1: ACGTCACTTCCTAAATACGT
DNA 2: ACGTATTTAGGAAGTGACGT
B42: PU.1 motif oligo 36 (dsDNA)
DNA 1: ACGTCCCTTCCTCTTTACGT
DNA 2: ACGTAAAGAGGAAGGGACGT
B43: PU.1 motif oligo 31 (dsDNA)
DNA 1: ACGTCAGTTCCTCAAAACGT
DNA 2: ACGTTTTGAGGAACTGACGT
B44: PU.1 motif oligo 46 (dsDNA)
DNA 1: ACGTCACTTCCTCCAGACGT
DNA 2: ACGTCTGGAGGAAGTGACGT
B45: PU.1 motif oligo 22 (dsDNA)
DNA 1: ACGTGACTTCCTCATCACGT
DNA 2: ACGTGATGAGGAAGTCACGT
B46: PU.1 motif oligo 3 (dsDNA)
DNA 1: ACGTCACTTCCCCTTTACGT
DNA 2: ACGTAAAGGGGAAGTGACGT
B47: PU.1 motif oligo 4 (dsDNA)
DNA 1: ACGTCACTTCCTCTATACGT
DNA 2: ACGTATAGAGGAAGTGACGT
B48: PU.1 motif oligo 6 (dsDNA)
DNA 1: ACGTGACTTCCTCTTTACGT
DNA 2: ACGTAAAGAGGAAGTCACGT
B49: PU.1 motif oligo 44 (dsDNA)
DNA 1: ACGTCACTTCTCTTTTACGT
DNA 2: ACGTAAAAGAGAAGTGACGT
B50: PU.1 motif oligo 21 (dsDNA)
DNA 1: ACGTGAGTTCCTCTTTACGT
DNA 2: ACGTAAAGAGGAACTCACGT
B51: PU.1 motif oligo 13 (dsDNA)
DNA 1: ACGTCACTTCCTCTACACGT
DNA 2: ACGTGTAGAGGAAGTGACGT
B52: PU.1 motif oligo 55 (dsDNA)
DNA 1: ACGTCACTTCCCTCCCACGT
DNA 2: ACGTGGGAGGGAAGTGACGT
B53: PU.1 motif oligo 40 (dsDNA)
DNA 1: ACGTCAGTTCCTTAAAACGT
DNA 2: ACGTTTTAAGGAACTGACGT
B54: PU.1 motif oligo 15 (dsDNA)
DNA 1: ACGTGACTTCCTCTCTACGT
DNA 2: ACGTAGAGAGGAAGTCACGT
B55: PU.1 motif oligo 59 (dsDNA)
DNA 1: ACGTAACTTCTTCCTTACGT
DNA 2: ACGTAAGGAAGAAGTTACGT
B56: PU.1 motif oligo 2 (dsDNA)
DNA 1: ACGTCACTTCCTCATTACGT
DNA 2: ACGTAATGAGGAAGTGACGT
B57: PU.1 motif oligo 26 (dsDNA)
DNA 1: ACGTAAGTTCCTCATTACGT
DNA 2: ACGTAATGAGGAACTTACGT

Molecular target: PU.1 (human, UniProt P17947 1-270)
Assay: MST; MST: 20 mM Tris-HCl pH 7.6, 1.5 mM MgCl2, 0.5 mM EGTA, 10% glycerol, 300 mM KCl, 10 mM DTT, 25 C; 50 nM Cy3-dsDNA, PU.1 1:1 dilutions from 23 uM
Conditions: protein: recombinant; tags: N-terminal His-tag; label: Cy3 on upper strand

Binder	Kd [nM]
B1	470 ± 26
B2	794 ± 112
B3	893 ± 116
B4	822 ± 289
B5	422 ± 29
B6	362 ± 103
B7	658 ± 267
B8	596 ± 7
B9	828 ± 8
B10	690 ± 134
B11	164 ± 17
B12	414 ± 92
B13	887 ± 104
B14	464 ± 77
B15	222 ± 45
B16	242 ± 5
B17	613 ± 70
B18	234 ± 21
B19	588 ± 95

Binder	Kd [nM]
B20	1070 ± 229
B21	4600 ± 2570
B22	558 ± 77
B23	929 ± 222
B24	270 ± 23
B25	600 ± 7
B26	1660 ± 170
B27	361 ± 54
B28	444 ± 55
B29	983 ± 94
B30	462 ± 77
B31	1895 ± 10
B32	1700 ± 440
B33	670 ± 145
B34	452 ± 107
B35	719 ± 116
B36	757 ± 186
B37	656 ± 191
B38	611 ± 58

Binder	Kd [nM]
B39	2120 ± 890
B40	786 ± 41
B41	620 ± 147
B42	682 ± 71
B43	599 ± 142
B44	634 ± 12
B45	532 ± 11
B46	454 ± 61
B47	413 ± 84
B48	190 ± 31
B49	770 ± 174
B50	298 ± 15
B51	568 ± 283
B52	1010 ± 192
B53	808 ± 97
B54	324 ± 45
B55	1620 ± 20
B56	272 ± 36
B57	490 ± 141
